Reference: US20050070470A1 (ADMINISTRATORS OF THE TULANE EDUCATIONAL FUND, published 2005)
Bridges are numbered along the chain shown (N, C = ends). Where no end group is shown, it is not given here. [ ]: non-standard residue; d: D form. The star is where a group is joined. DOTA = O=C(O)CN1CCN(CC(=O)O)CCN(CC(=O)*)CCN(CC(=O)O)CC1

B1: DOTA-D-Ser-D-Ser-D-Ser-D-Ser-D-Ser-D-Ser-D-Ser-D-Ser-D-Ser-D-Ser-L-Lys-D-Tyr-D-Tyr-cyclo[L-Cys-L-Phe-D-Trp-L-Lys-L-Thr-L-Cys]-L-Thr-NH2 (peptide)
peptide: {DOTA}-[dS][dS][dS][dS][dS][dS][dS][dS][dS][dS]K[dY][dY]CF[dW]KTCT-NH2
modifications: disulfide 14-19
SMILES: C[C@@H](O)[C@H](NC(=O)[C@@H]1CSSC[C@H](NC(=O)[C@@H](Cc2ccc(O)cc2)NC(=O)[C@@H](Cc2ccc(O)cc2)NC(=O)[C@H](CCCCN)NC(=O)[C@@H](CO)NC(=O)[C@@H](CO)NC(=O)[C@@H](CO)NC(=O)[C@@H](CO)NC(=O)[C@@H](CO)NC(=O)[C@@H](CO)NC(=O)[C@@H](CO)NC(=O)[C@@H](CO)NC(=O)[C@@H](CO)NC(=O)[C@@H](CO)NC(=O)CN2CCN(CC(=O)O)CCN(CC(=O)O)CCN(CC(=O)O)CC2)C(=O)N[C@@H](Cc2ccccc2)C(=O)N[C@H](Cc2c[nH]c3ccccc23)C(=O)N[C@@H](CCCCN)C(=O)N[C@@H]([C@@H](C)O)C(=O)N1)C(N)=O
B2: D-Ser-D-Ser-D-Ser-D-Ser-D-Ser-D-Ser-D-Ser-D-Ser-D-Ser-D-Ser-D-Ser-D-Ser-D-Ser-D-Ser-D-Ser-L-Lys-D-Tyr-D-Tyr-cyclo[L-Cys-L-Phe-D-Trp-L-Lys-L-Thr-L-Cys]-L-Thr-NH2 (peptide)
peptide: [dS][dS][dS][dS][dS][dS][dS][dS][dS][dS][dS][dS][dS][dS][dS]K[dY][dY]CF[dW]KTCT-NH2
modifications: disulfide 19-24; N-terminus assumed
SMILES: C[C@@H](O)[C@H](NC(=O)[C@@H]1CSSC[C@H](NC(=O)[C@@H](Cc2ccc(O)cc2)NC(=O)[C@@H](Cc2ccc(O)cc2)NC(=O)[C@H](CCCCN)NC(=O)[C@@H](CO)NC(=O)[C@@H](CO)NC(=O)[C@@H](CO)NC(=O)[C@@H](CO)NC(=O)[C@@H](CO)NC(=O)[C@@H](CO)NC(=O)[C@@H](CO)NC(=O)[C@@H](CO)NC(=O)[C@@H](CO)NC(=O)[C@@H](CO)NC(=O)[C@@H](CO)NC(=O)[C@@H](CO)NC(=O)[C@@H](CO)NC(=O)[C@@H](CO)NC(=O)[C@H](N)CO)C(=O)N[C@@H](Cc2ccccc2)C(=O)N[C@H](Cc2c[nH]c3ccccc23)C(=O)N[C@@H](CCCCN)C(=O)N[C@@H]([C@@H](C)O)C(=O)N1)C(N)=O
B3: D-Ser-D-Ser-D-Ser-D-Ser-D-Ser-D-Ser-D-Ser-D-Ser-D-Ser-D-Ser-L-Lys-D-Tyr-D-Tyr-cyclo[L-Cys-L-Phe-D-Trp-L-Lys-L-Thr-L-Cys]-L-Thr-NH2 (peptide)
peptide: [dS][dS][dS][dS][dS][dS][dS][dS][dS][dS]K[dY][dY]CF[dW]KTCT-NH2
modifications: disulfide 14-19; N-terminus assumed
SMILES: C[C@@H](O)[C@H](NC(=O)[C@@H]1CSSC[C@H](NC(=O)[C@@H](Cc2ccc(O)cc2)NC(=O)[C@@H](Cc2ccc(O)cc2)NC(=O)[C@H](CCCCN)NC(=O)[C@@H](CO)NC(=O)[C@@H](CO)NC(=O)[C@@H](CO)NC(=O)[C@@H](CO)NC(=O)[C@@H](CO)NC(=O)[C@@H](CO)NC(=O)[C@@H](CO)NC(=O)[C@@H](CO)NC(=O)[C@@H](CO)NC(=O)[C@H](N)CO)C(=O)N[C@@H](Cc2ccccc2)C(=O)N[C@H](Cc2c[nH]c3ccccc23)C(=O)N[C@@H](CCCCN)C(=O)N[C@@H]([C@@H](C)O)C(=O)N1)C(N)=O
B4: D-Ser-D-Ser-D-Ser-D-Ser-D-Ser-L-Lys-D-Ser-D-Ser-cyclo[L-Cys-L-Phe-D-Trp-L-Lys-L-Thr-L-Cys]-L-Thr-NH2 (peptide)
peptide: [dS][dS][dS][dS][dS]K[dS][dS]CF[dW]KTCT-NH2
modifications: disulfide 9-14; N-terminus assumed
SMILES: C[C@@H](O)[C@H](NC(=O)[C@@H]1CSSC[C@H](NC(=O)[C@@H](CO)NC(=O)[C@@H](CO)NC(=O)[C@H](CCCCN)NC(=O)[C@@H](CO)NC(=O)[C@@H](CO)NC(=O)[C@@H](CO)NC(=O)[C@@H](CO)NC(=O)[C@H](N)CO)C(=O)N[C@@H](Cc2ccccc2)C(=O)N[C@H](Cc2c[nH]c3ccccc23)C(=O)N[C@@H](CCCCN)C(=O)N[C@@H]([C@@H](C)O)C(=O)N1)C(N)=O
B5: Acetyl-D-Ser-D-Ser-D-Ser-D-Ser-D-Ser-D-Ser-D-Ser-D-Ser-D-Ser-D-Ser-L-Lys-D-Tyr-D-Tyr-cyclo[L-Cys-L-Phe-D-Trp-L-Lys-L-Thr-L-Cys]-L-Thr-NH2 (peptide)
peptide: Ac-[dS][dS][dS][dS][dS][dS][dS][dS][dS][dS]K[dY][dY]CF[dW]KTCT-NH2
modifications: disulfide 14-19
SMILES: CC(=O)N[C@H](CO)C(=O)N[C@H](CO)C(=O)N[C@H](CO)C(=O)N[C@H](CO)C(=O)N[C@H](CO)C(=O)N[C@H](CO)C(=O)N[C@H](CO)C(=O)N[C@H](CO)C(=O)N[C@H](CO)C(=O)N[C@H](CO)C(=O)N[C@@H](CCCCN)C(=O)N[C@H](Cc1ccc(O)cc1)C(=O)N[C@H](Cc1ccc(O)cc1)C(=O)N[C@H]1CSSC[C@@H](C(=O)N[C@H](C(N)=O)[C@@H](C)O)NC(=O)[C@H]([C@@H](C)O)NC(=O)[C@H](CCCCN)NC(=O)[C@@H](Cc2c[nH]c3ccccc23)NC(=O)[C@H](Cc2ccccc2)NC1=O

target: somatostatin subtype 2 rat receptor (rat, UniProt P30680 1-369); assay: cell-based or functional assay
Sequence (P30680 whole entry): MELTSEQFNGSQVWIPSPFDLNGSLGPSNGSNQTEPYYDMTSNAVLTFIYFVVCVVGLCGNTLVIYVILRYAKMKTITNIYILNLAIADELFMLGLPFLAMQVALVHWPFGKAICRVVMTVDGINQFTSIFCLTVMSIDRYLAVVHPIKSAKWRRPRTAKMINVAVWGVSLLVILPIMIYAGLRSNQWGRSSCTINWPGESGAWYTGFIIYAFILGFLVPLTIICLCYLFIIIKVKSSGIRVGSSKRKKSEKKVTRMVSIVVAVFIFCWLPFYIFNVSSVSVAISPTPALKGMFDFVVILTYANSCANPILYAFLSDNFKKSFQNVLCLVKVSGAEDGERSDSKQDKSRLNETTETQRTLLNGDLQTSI

Point of comparison: B4, “IC50 (nM), inhibition of GH release from primary cultures of rat pituitary cells” value 3.29 nM. Against it:
- B1 — 4.6-fold lower, 0.71 nM
- B2 — 10-fold lower, 0.32 nM
- B3 — 27-fold lower, 0.12 nM
- B5 — 5.8-fold lower, 0.57 nM
